In this assay the target is BauA on the surface of the strains of the A. baumannii diversity set (100 strains, MRSN). In words: native ELISA on the diversity set of 100 A. baumannii strains. In general terms: In an ELISA, binding on a coated surface is turned into a signal by an enzyme label.

Here are results for one molecule from patent US20260201022A1.

B1: αBauA mouse monoclonal antibody against BauA of Acinetobacter baumannii (hybridoma subclone 12C1) (antibody, V domains shown)
VH: EVQLQESGADLVRPGSSVKISCKASGYAFSNYWMHWMKQRPGQGLEWIGQIYPGDGDTNYNGKFKGKATLTADKSSSSAYMQLSSLISEDSAVYFCARGDFYYGSPFAYWGQGTLVTVSA
VL: DIVMTQAAPSVPVTPGESVSISCRSSKSLLHSNGNTYLYWFLQRPGQSPQLLIYRMSNLASGVPDRFSGSGSGTAFTLRISRVEAEDVGVYYCMQHLEYPLTFGAGTKLELK
Regarding B1, the percent of strains recognized is more than 68%.
